The source of these data is patent publication US20200325237A1 (AVIDITY BIOSCIENCES, published 2020).

Experiment [1] concerns the target T1, hTfR (human transferrin receptor, source and construct not stated) (human, UniProt P02786 89-760, limits assumed). Put plainly: ELISA, biotinylated antibody on hTfR captured by plate-coated HFE (HFE+TfR).
The target of experiment [2] is T2, recombinant human transferrin receptor protein (Sino Biological 11020-H07H) (human, UniProt P02786 89-760).
T2 construct: Bought protein coated on ELISA plates; also called recombinant human TfR1; human TfR1
T2 sequence (P02786 89-760 limits assumed): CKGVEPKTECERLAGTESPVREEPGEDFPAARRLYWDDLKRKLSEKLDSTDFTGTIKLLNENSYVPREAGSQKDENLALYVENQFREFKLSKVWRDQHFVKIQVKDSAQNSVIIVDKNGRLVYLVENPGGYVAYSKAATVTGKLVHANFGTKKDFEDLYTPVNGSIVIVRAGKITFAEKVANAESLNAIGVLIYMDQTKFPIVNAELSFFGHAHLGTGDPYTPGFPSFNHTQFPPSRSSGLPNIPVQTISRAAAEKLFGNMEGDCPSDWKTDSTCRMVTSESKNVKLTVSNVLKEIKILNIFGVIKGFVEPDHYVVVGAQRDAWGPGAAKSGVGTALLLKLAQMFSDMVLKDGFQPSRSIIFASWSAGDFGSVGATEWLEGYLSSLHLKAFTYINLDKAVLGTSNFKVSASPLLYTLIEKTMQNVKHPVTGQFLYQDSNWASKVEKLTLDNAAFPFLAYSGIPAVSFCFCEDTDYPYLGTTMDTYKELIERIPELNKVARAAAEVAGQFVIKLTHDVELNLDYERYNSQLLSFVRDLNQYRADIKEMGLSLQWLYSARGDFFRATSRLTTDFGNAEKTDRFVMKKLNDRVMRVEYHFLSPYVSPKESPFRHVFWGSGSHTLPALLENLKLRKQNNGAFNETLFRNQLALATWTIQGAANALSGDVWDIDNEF
Put plainly: ELISA on plate-coated recombinant human TfR1 (CD71); fit: specific binding with Hill slope (row labels blank in the lower block; row taken by the order Bmax, h, Kd). As to the method: Half-well high-binding 96-well plates (Costar #3690) were coated with recombinant human transferrin receptor protein (Sino Biological 11020-H07H) or recombinant cyno transferrin receptor protein (Sino Biological 90253-C07H) at 1 ng/μL in PBS (Gibco 14190) and incubated overnight at 4° C. Plates were washed four times with 100 μL of Tris buffered saline+Tween (20×TBST, Cell Signaling 9997S). 100 μL of Superblock (ThermoFisher PI-37535) was added to each well and incubated for 1 hour at room temperature. The wash step was repeated before the addition of the samples. Samples were added at concentrations up to 10 nM, 50 μL/well. Plates were incubated for another hour at room temp and wash step repeated. Secondary antibody (Peroxidase AffiniPure Goat Anti-Human IgG, Fcγ Fragment Specific, Jackson Immunoresearch, 109-035-098) was diluted 1:5000 in Superblock and 50 μL/well added. Plates were incubated for 1 hour at room temperature and washed one more time. Binding was measured by the addition of 50 μL of 1-Step™ Ultra TMB-ELISA (ThermoFisher, 34028), incubated for 5 minutes, and the reaction was stopped with the addition of 25 μL of Stop Solution 2N sulfuric Acid (R&D Systems DY994). Absorbance was measured at 450 nm, with reference wavelength 570 nm subtracted. Binding constants were determined using GraphPad Prism Specific Binding with Hill Slope.
In general terms: ELISA stands for enzyme-linked immunosorbent assay.

For experiment [3], the target named is T3, TfR2 (transferrin receptor 2) (UniProt Q9UP52 105-801, limits assumed).
T3 sequence (looked up): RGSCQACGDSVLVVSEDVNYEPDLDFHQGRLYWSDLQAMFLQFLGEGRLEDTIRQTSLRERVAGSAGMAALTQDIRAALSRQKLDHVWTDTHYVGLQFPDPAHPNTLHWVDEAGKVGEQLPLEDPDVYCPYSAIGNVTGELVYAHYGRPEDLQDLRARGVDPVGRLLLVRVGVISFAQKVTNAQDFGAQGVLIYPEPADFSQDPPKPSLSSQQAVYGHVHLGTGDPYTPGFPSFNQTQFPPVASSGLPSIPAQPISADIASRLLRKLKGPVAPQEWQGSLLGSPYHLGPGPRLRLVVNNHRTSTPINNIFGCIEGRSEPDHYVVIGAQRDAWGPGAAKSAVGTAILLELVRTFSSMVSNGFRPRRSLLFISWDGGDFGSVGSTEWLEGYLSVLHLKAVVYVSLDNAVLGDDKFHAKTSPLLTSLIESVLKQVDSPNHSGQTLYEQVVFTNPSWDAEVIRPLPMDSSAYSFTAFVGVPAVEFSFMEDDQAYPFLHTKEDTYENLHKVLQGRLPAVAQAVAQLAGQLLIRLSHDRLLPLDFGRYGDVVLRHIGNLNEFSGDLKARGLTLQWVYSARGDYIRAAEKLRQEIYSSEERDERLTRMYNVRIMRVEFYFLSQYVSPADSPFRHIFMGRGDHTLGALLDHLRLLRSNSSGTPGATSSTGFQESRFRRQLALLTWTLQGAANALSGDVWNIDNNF
Kind of experiment: A450 plate assay on TfR2 (method not described in the text).

For experiment [4], the target named is T1, hTfR (human transferrin receptor, …). Put plainly: ELISA, biotinylated antibody on hTfR captured by plate-coated HFE (HFE+TfR); fit: specific binding with Hill slope.
Experiment [5] addresses T4, recombinant cyno transferrin receptor protein (Sino Biological 90253-C07H) (cyno, UniProt H9EXL1 89-760 (rhesus entry)).
T4 construct: Bought protein coated on ELISA plates; also called recombinant cyno TfR1; cynoTfR1
Put plainly: ELISA on plate-coated recombinant cyno TfR1 (CD71); fit: specific binding with Hill slope. The method in brief:
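Plates coated overnight at 4° C with recombinant human or cyno TfR1 (1 ng/μL), blocked, then incubated with samples up to 10 nM for 1 h at room temperature. Bound IgG detected with HRP anti-human Fcγ and TMB (A450 minus A570); Bmax, h and Kd from specific-binding-with-Hill-slope fit.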

Experiment [6] concerns the target T1, hTfR (human transferrin receptor, …). Kind of experiment: ELISA; ratio of the Kd on HFE-captured hTfR to the Kd on directly coated hTfR.
Experiment [7] has the same target. Put plainly: ELISA, biotinylated antibody on hTfR captured by plate-coated human holo-transferrin (Tf+TfR); fit: specific binding with Hill slope. Summed up: (§1)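 Human holo-transferrin coated at 500 ng/mL (4 °C overnight) captured hTfR (200 ng/mL, 30 min); comparison plates carried directly coated hTfR. Biotinylated antibodies, 3-fold series from 20 nM (pre-addition), bound 1 h; streptavidin-HRP/TMB, A450 minus A570. Kd from specific binding with Hill slope; shift judged against reference antibody AF2474 with transferrin-overlapping epitope.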

The target is the same in experiment [8]. Put plainly: ELISA; ratio of the Kd on transferrin-captured hTfR to the Kd on directly coated hTfR. Summed up: as §1
For experiment [9] the target is unchanged. Kind of experiment: SPR (BioRad ProteOn XPR36), mAb captured on Protein A, hTfR as analyte, 25 C. The method in brief:
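Antibodies at 2 ug/ml were captured on a Protein A GLM chip for 40 s. hTfR was injected as analyte from 43 nM in a 3-fold series, 2 min association and 1 h dissociation. Run at 25 degrees C in HEPES/150 mM NaCl pH 7.4 with tween-20 and 0.2 mg/ml BSA.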

T4 sequence (chain, as listed by the source C07H C07H): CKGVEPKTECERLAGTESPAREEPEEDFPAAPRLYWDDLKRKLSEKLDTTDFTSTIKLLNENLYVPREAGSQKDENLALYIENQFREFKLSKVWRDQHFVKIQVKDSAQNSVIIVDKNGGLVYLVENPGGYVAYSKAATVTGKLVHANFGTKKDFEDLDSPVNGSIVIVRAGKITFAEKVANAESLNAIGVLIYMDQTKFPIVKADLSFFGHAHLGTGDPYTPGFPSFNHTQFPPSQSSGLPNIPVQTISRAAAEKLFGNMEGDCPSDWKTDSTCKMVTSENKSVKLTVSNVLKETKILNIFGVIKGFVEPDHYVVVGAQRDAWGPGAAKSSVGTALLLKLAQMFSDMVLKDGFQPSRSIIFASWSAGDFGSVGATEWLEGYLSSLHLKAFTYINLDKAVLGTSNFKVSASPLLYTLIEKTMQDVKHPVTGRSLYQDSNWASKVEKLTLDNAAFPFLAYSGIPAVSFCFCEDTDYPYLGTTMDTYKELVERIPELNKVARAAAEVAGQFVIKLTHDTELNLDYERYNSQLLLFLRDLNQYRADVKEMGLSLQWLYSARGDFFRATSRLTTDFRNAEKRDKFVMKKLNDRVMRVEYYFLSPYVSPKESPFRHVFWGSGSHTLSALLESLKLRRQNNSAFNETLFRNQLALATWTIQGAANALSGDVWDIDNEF
T1 sequence (P02786 89-760 limits assumed): as the sequence (P02786 89-760 limits assumed) above

B1: 13E4-Variant 15iii (antibody, human IgG1, kappa, L234A L235A)
heavy: QVQLVQSGAEVKKPGASVKVSCKASGYTFTNYWMHWVRQAPGQGLEWMGEINPIQGRSNYAEKFQGRVTLTVDTSSSTAYMELSSLRSEDTATYYCARGTRAMHYWGQGTLVTVSSASTKGPSVFPLAPSSKSTSGGTAALGCLVKDYFPEPVTVSWNSGALTSGVHTFPAVLQSSGLYSLSSVVTVPSSSLGTQTYICNVNHKPSNTKVDKRVEPKSCDKTHTCPPCPAPEAAGGPSVFLFPPKPKDTLMISRTPEVTCVVVDVSHEDPEVKFNWYVDGVEVHNAKTKPREEQYNSTYRVVSVLTVLHQDWLNGKEYKCKVSNKARPAPIEKTISKAKGQPREPQVYTLPPSREEMTKNQVSLTCLVKGFYPSDIAVEWESNGQPENNYKTTPPVLDSDGSFFLYSKLTVDKSRWQQGNVFSCSVMHEALHNHYTQKSLSLSPG
light: DIQMTQSPSSLSASVGDRVTITCRTSENIYSNLAWYQQKPGKAPKLLIYAGTNLADGVPSRFSGSGSGTDYTLTISSLQPEDFANYYCQHFWGTPLTFGGGTKVEIKRTVAAPSVFIFPPSDEQLKSGTASVVCLLNNFYPREAKVQWKVDNALQSGNSQESVTEQDSKDSTYSLSSTLTLSKADYEKHKVYACEVTHQGLSSPVTKSFNRGEC
notes: Humanized hIgG1 with Fc mutations; also called hIgG1 TfR-Var15iii
By EC50 (read off the curve) is commonly meant the midpoint of the concentration-response curve. The low end stands for greater potency, the high end for weaker potency. The term Kd denotes the free concentration of one partner at which half of the binding sites on the other are occupied at equilibrium, for simple one-to-one binding. Usually koff stands for a measure of how fast the partners let go of each other. A higher koff goes with a short-lived complex. For orientation: kon means the rate constant with which the complex forms. Higher therefore signals faster complex formation. For the molecule B1, the “EC50 (read off the curve)” value in [1] is roughly 0.2 nM. Moreover, in [2], the Bmax amounted to 96.5 % max binding, the Kd turned out to be 0.0063 nM and the h came to 1.35. For the same molecule, the binding result in experiment [3] is given as “no binding (tested: 1000 nM)”. Also, in experiment [4], the Bmax is 1.81 A450, the Kd came to 0.213 nM and the h is 1.45. In addition, in [5], the Bmax amounted to 96.4 % max binding, the equilibrium dissociation constant (Kd) was determined as 0.0103 nM and the h was 1.54. For the same molecule, the “Kd(HFE+TfR)/Kd(TfR)” value in experiment [6] amounted to 8.5. In experiment [7], this molecule displayed a Bmax of 3.5 A450, a Kd of 0.0604 nM and a h of 1.52. Further, the “Kd(Tf+TfR)/Kd(TfR)” value in experiment [8] was 2.4. In experiment [9], the affinity, expressed as Kd, was 0.00999 nM; the koff worked out at 6.94e-06 s⁻¹; the kon was 695000 M⁻¹ s⁻¹.
